Measurements taken from PMC7360973 (2020).
Ends that are not written are not given here.

biological target: Human Hsc70 (HSPA8) (human, UniProt P11142 1-646); assay: FP
Sequence (P11142 whole entry): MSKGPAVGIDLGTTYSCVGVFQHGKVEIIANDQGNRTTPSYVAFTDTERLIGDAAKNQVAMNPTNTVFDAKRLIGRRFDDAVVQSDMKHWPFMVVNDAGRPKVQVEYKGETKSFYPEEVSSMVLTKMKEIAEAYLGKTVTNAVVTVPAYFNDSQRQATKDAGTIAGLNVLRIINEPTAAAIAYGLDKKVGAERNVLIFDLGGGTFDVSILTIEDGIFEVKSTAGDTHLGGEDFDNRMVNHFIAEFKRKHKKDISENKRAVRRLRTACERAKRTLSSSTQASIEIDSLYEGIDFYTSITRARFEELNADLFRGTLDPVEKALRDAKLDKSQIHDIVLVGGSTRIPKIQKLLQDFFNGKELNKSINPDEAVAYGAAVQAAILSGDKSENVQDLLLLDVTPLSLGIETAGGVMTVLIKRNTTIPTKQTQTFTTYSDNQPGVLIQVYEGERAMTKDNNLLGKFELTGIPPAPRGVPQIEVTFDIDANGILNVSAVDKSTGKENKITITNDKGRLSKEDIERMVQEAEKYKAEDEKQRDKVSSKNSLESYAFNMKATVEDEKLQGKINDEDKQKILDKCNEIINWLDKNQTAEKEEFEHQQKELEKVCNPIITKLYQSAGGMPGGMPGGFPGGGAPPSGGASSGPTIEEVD

Kd, > 60 µM:
GVKRKSPSMSNC(fluorescein‑5‑maleimide) [Hsf1 peptide G204‐N214‐C_SSS], NRSSGSKRKC(fluorescein‑5‑maleimide) [Hsf1 peptide N200‐K208‐C_SSS], NMYGFRKVVHIEQC(fluorescein‑5‑maleimide) [Hsf1 peptide N74‐Q86‐C], PKYSRQFSLEHVHC(fluorescein‑5‑maleimide) [Hsf1 peptide P223‐H235‐C]
